Sequences and labels used below:
B1: RNN0207ii (antibody, human IgG1, kappa, N297A)
heavy: QEQLEESGGRLVTPGGSLTLTCTASGFSLSSYVISWVRQAPGEGLEYIGYVSTGGSPYYASWAKGRFTISRTSTAVDLKMTSLTASDTATYFCARYGYLDYSGLDLWGQGTLVTVSSASTKGPSVFPLAPSSRSTSESTAALGCLVKDYFPEPVTVSWNSGALTSGVHTFPAVLQSSGLYSLSSVVTVPSSSLGTKTYTCNVDHKPSNTKVDKRVEPKSCDKTHTCPPCPAPELRRGPKVFLFPPKPKDTLMISRTPEVTCVVVDVSQEDPEVQFNWYVDGVEVHNAKTKPREEQFASTYRVVSVLTVLHQDWLNGKEYKCKVSNKGLPSSIEKTISKAKGQPREPQVYTLPPSREEMTKNQVSLTCLVKGFYPSDIAVEWESNGQPENNYKTTPPYLDSDGSFFLYSKLTVDKSRWQQGNVFSCSVMHEALHNHYTQESLSLSPHHHHHHHH
light: AQVLTQTPSSTSTAVGGTVTINCQSSQSVYEYNHLSWFQQKPGQPPKLLIYGASTLASGVPSRFKGSGSGTQFTLTISDLECDDAATYYCQGAYYGVVDTFGGGTKVEIKRTVAAPSVFIFPPSDEQLKSGTASVVCLLNNFYPREAKVQWKVDNALQSGNSQESVTEQDSKDCTYSLSSTLTLSKADYEKHKVYACEVTHQGLSSPVTKSFNRGEC
notes: Rabbit variable regions recombined with BS03aHis heavy-chain constant region and hk0MC light-chain constant region; also called anti-RNF43 monospecific antibody
B2: RNN0191kk (antibody, human IgG1, kappa, N297A, V domains shown)
VH: QSLEESGGRLVTPGGSLTLTCTASGFSLSSYAIGWVRQAPGKGLEYVGIIERNDKTAYASWAKGRFTISRTSTTVDLKMTSLTTEDTATYFCARGYLDNSPLWGPGTLVTVSS
VL: AIEMTQTPASVSAAVGGTVTINCQSSQSVGDNIWLGWYQQKPGQPPKLLIRYASTLASGVPSRFKGSGSGTQFTLTISDLECDDAATYYCAGAYNGLIYSFGGGTKVEIKR
notes: as for B1
B3: RNN0192nn (antibody, human IgG1, kappa, N297A)
heavy: QEQLVESGGGLVQPEGSLTLTCTASGFSFSSRYYMCWVRQAPGKGLEWIGCIYTGSGSTYYASWAKGRVTISKTSSTTVTLQMTSLTAADTATYFCAREAGSFNLWGPGTLVTVSSASTKGPSVFPLAPSSRSTSESTAALGCLVKDYFPEPVTVSWNSGALTSGVHTFPAVLQSSGLYSLSSVVTVPSSSLGTKTYTCNVDHKPSNTKVDKRVEPKSCDKTHTCPPCPAPELRRGPKVFLFPPKPKDTLMISRTPEVTCVVVDVSQEDPEVQFNWYVDGVEVHNAKTKPREEQFASTYRVVSVLTVLHQDWLNGKEYKCKVSNKGLPSSIEKTISKAKGQPREPQVYTLPPSREEMTKNQVSLTCLVKGFYPSDIAVEWESNGQPENNYKTTPPYLDSDGSFFLYSKLTVDKSRWQQGNVFSCSVMHEALHNHYTQESLSLSPHHHHHHHH
light: DVVMTQTPASVSEPVGGTVTIKCQASQSIYSGLAWYQQKPGQPPKLLIYSASKLASGVPSRFKGSGSGTEYTLTISDLECADAATYYCQNYYYGISNGWTFGGGTKVEIKRTVAAPSVFIFPPSDEQLKSGTASVVCLLNNFYPREAKVQWKVDNALQSGNSQESVTEQDSKDCTYSLSSTLTLSKADYEKHKVYACEVTHQGLSSPVTKSFNRGEC
notes: as for B1
B4: RNN0187jj (antibody, human IgG1, kappa, N297A)
heavy: QSLEESGGDLVKPGASLTLTCTASGFSFNSAYYMCWVRQAPGKGLEWIGCIYTGSGSTYYASWAKGRFTISKTSSTTVTLQMTSLTVADTATYFCARSGVSTYYTLWGPGTLVTVSSASTKGPSVFPLAPSSRSTSESTAALGCLVKDYFPEPVTVSWNSGALTSGVHTFPAVLQSSGLYSLSSVVTVPSSSLGTKTYTCNVDHKPSNTKVDKRVEPKSCDKTHTCPPCPAPELRRGPKVFLFPPKPKDTLMISRTPEVTCVVVDVSQEDPEVQFNWYVDGVEVHNAKTKPREEQFASTYRVVSVLTVLHQDWLNGKEYKCKVSNKGLPSSIEKTISKAKGQPREPQVYTLPPSREEMTKNQVSLTCLVKGFYPSDIAVEWESNGQPENNYKTTPPYLDSDGSFFLYSKLTVDKSRWQQGNVFSCSVMHEALHNHYTQESLSLSPHHHHHHHH
light: DVVMTQTPSSVSAAVGGTVTIKCQASQSIYSGLAWYQQKPGQPPKLLIYGASTLASGVPSRFKGSGSGTEYTLTISGVQCDDAATYYCQNNYYTPSNGWAFGGGTKVEIKRTVAAPSVFIFPPSDEQLKSGTASVVCLLNNFYPREAKVQWKVDNALQSGNSQESVTEQDSKDCTYSLSSTLTLSKADYEKHKVYACEVTHQGLSSPVTKSFNRGEC
notes: as for B1
B5: RNN0198oo (antibody, human IgG1, kappa, N297A, V domains shown)
VH: QEQLVESGGGLVQPEGSLTLTCKASGLDFSSSYWMCWVRQAPGKGLEWIGCIYTGSSGSTYYASWAKGRFTISKTSSTTVTLQMTSLTAADTATYFCARTGSRYWNYFELWGPGTLVTVSS
VL: DVVMTQTPPSVSAAVGGTVTIKCQASQSIYRGLAWYQQKPGQPPNLLIYSASTLASGVPSRFSGSGSGTEYTLTISDLECADAATYYCQSYYYSSSNGWPFGGGTKVEIKR
notes: as for B1
B6: RNN0246jj (antibody, human IgG1, kappa, N297A)
heavy: QSVEESGGRLVTPDETLTLTCTVSGFSLNNYHMIWVRQAPGEGLEYIGFINTGGSAYYANWAKGRFTISKTSTTVDLKITSPTTEDTATYFCASVSWRTDYSFELWGPGTLVTVSSASTKGPSVFPLAPSSRSTSESTAALGCLVKDYFPEPVTVSWNSGALTSGVHTFPAVLQSSGLYSLSSVVTVPSSSLGTKTYTCNVDHKPSNTKVDKRVEPKSCDKTHTCPPCPAPELRRGPKVFLFPPKPKDTLMISRTPEVTCVVVDVSQEDPEVQFNWYVDGVEVHNAKTKPREEQFASTYRVVSVLTVLHQDWLNGKEYKCKVSNKGLPSSIEKTISKAKGQPREPQVYTLPPSREEMTKNQVSLTCLVKGFYPSDIAVEWESNGQPENNYKTTPPYLDSDGSFFLYSKLTVDKSRWQQGNVFSCSVMHEALHNHYTQESLSLSPHHHHHHHH
light: AQVLTQTPSPVSAAVGGTVTISCQASQSVYANNRLAWFQQKPGQPPKLLIYSASTLASGVPSRFKGSGSGTQFTLTISGVQCDDAATYYCAGAYTGNIYTFGGGTKVEIKRTVAAPSVFIFPPSDEQLKSGTASVVCLLNNFYPREAKVQWKVDNALQSGNSQESVTEQDSKDCTYSLSSTLTLSKADYEKHKVYACEVTHQGLSSPVTKSFNRGEC
notes: as for B1
B7: RNN0193jj (antibody, human IgG1, kappa, N297A)
heavy: QSLEESGGDLVKPGASLTLTCTASGFSFSNNYWICWVRQAPGKGPEWIACIYTGDGDTDYASWAKGRFTISKTSSTTVTLQMTSLTAADTATYFCAREAGTVDGVWNYVFNLWGPGTLVTVSSASTKGPSVFPLAPSSRSTSESTAALGCLVKDYFPEPVTVSWNSGALTSGVHTFPAVLQSSGLYSLSSVVTVPSSSLGTKTYTCNVDHKPSNTKVDKRVEPKSCDKTHTCPPCPAPELRRGPKVFLFPPKPKDTLMISRTPEVTCVVVDVSQEDPEVQFNWYVDGVEVHNAKTKPREEQFASTYRVVSVLTVLHQDWLNGKEYKCKVSNKGLPSSIEKTISKAKGQPREPQVYTLPPSREEMTKNQVSLTCLVKGFYPSDIAVEWESNGQPENNYKTTPPYLDSDGSFFLYSKLTVDKSRWQQGNVFSCSVMHEALHNHYTQESLSLSPHHHHHHHH
light: AQVLTQTPSPVSAAVGGTVTISCQSSQSVYNDNLAWFQQKPGQPPKLLIYDASTLASGVPSRFKGSGSGTQFTLTISKLQCDDAATYYCQGVYIGHIFTFGGGTKVEIKRTVAAPSVFIFPPSDEQLKSGTASVVCLLNNFYPREAKVQWKVDNALQSGNSQESVTEQDSKDCTYSLSSTLTLSKADYEKHKVYACEVTHQGLSSPVTKSFNRGEC
notes: as for B1
B8: RNN0275kk (antibody, human IgG1, kappa, N297A, V domains shown)
VH: QSVEESGGRLVTPGTPLTLTCTVSGWTINSYHMCWVRQAPGEGLEWIATITTGGVTFYANWARGRFTISKTSTTVDLKMTSLTAADTATYFCVRGPDYTYFDLWGPGTLVTVSS
VL: NVVLTQTPSSVSAAVGGTVTIKCQASQSISDTLAWYQQKPGQPPKLLIYYASDLASGVPSRFSGSGSGTEFTLTINDLECADAATYYCQSYVYSNGIDNTFGGGTKVEIKR
notes: as for B1
B9: RNN0242nn (antibody, human IgG1, kappa, N297A)
heavy: QQQLEEYGGDLVQPEGSLTLTCKASGLDFSSSYWMCWVRQAPGKGLEWIACIYTGSSGSTSYASWAKGRFTISKTSSTTVTLQMTSLTAADTATYFCARDYDYTAYAYGIMSLWGPGTLVTVSSASTKGPSVFPLAPSSRSTSESTAALGCLVKDYFPEPVTVSWNSGALTSGVHTFPAVLQSSGLYSLSSVVTVPSSSLGTKTYTCNVDHKPSNTKVDKRVEPKSCDKTHTCPPCPAPELRRGPKVFLFPPKPKDTLMISRTPEVTCVVVDVSQEDPEVQFNWYVDGVEVHNAKTKPREEQFASTYRVVSVLTVLHQDWLNGKEYKCKVSNKGLPSSIEKTISKAKGQPREPQVYTLPPSREEMTKNQVSLTCLVKGFYPSDIAVEWESNGQPENNYKTTPPYLDSDGSFFLYSKLTVDKSRWQQGNVFSCSVMHEALHNHYTQESLSLSPHHHHHHHH
light: AEIVMTQTPSSKSAAVGDTVTIKCQASQSITSYLSWYQQKPGQPPKLLIYRASTLASGVPSRFKGSGSGTQFTLTISDLECADAATYYCQSNYGSYSTNYGVTFGGGTKVEIKRTVAAPSVFIFPPSDEQLKSGTASVVCLLNNFYPREAKVQWKVDNALQSGNSQESVTEQDSKDCTYSLSSTLTLSKADYEKHKVYACEVTHQGLSSPVTKSFNRGEC
notes: as for B1

The values below come from patent US20240239890A1 (Chugai, published 2024).

For this experiment, the target named is T1, Human RNF43 extracellular domain (amino acids 1-190) with a Flag tag on its C terminus (human, UniProt Q68DV7 24-190).
T1 construct: also called recombinant human RNF43; human RNF43 ECD
T1 sequence: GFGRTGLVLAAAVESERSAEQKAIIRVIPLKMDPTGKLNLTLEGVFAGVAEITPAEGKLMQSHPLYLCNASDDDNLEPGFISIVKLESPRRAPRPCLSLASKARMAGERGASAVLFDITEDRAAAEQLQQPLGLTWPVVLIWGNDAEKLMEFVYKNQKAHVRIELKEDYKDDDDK
Description: SPR, Biacore T200, antibody captured by anti-human Fc, RNF43 as analyte, pH 7.4, 25 C. The procedure: The affinity of the anti-RNF43 monospecific antibodies towards human RNF43 at pH 7.4 was determined at 25 degrees C. using the Biacore T200 instrument (GE Healthcare). Anti-human Fc (GE Healthcare) was immobilized onto all flow cells of a CM4 sensor chip using an amine coupling kit (GE Healthcare). All antibodies and analytes were prepared in ACES at pH 7.4 containing 20 mM ACES, 150 mM NaCl, 0.05% Tween 20, 0.005% NaN₃. Each antibody was captured onto the sensor surface by anti-human Fc. Antibody capture levels were aimed at 312 resonance unit (RU). Recombinant human RNF43 was injected at 200 nM, 50 nM, and 12.5 nM prepared by a four-fold serial dilution, followed by dissociation. The sensor surface was regenerated each cycle with 3M MgCl2. Binding affinity was determined by processing and fitting the data to a 1:1 binding model using the Biacore T200 Evaluation software, version 2.0 (GE Healthcare).
(In general: In SPR one partner is held on a chip, and binding of the other changes the refractive index at the surface.)
B1: the Kd – broadly, the constant that tells how readily two partners part at equilibrium – was 73.1 nM; the koff (commonly a measure of how fast the partners let go of each other) was 0.106 s⁻¹; the on-rate constant (kon) (in general, the second-order rate constant of association) is 1.45e+06 M⁻¹ s⁻¹.

The molecule B2 showed a Kd of 71.1 nM, a koff of 0.294 s⁻¹ and a kon of 4.14e+06 M⁻¹ s⁻¹.

In the case of B3, the Kd turned out to be 0.928 nM, the dissociation rate constant (koff) was 0.00558 s⁻¹ and the on-rate constant (kon) was 6.02e+06 M⁻¹ s⁻¹.

As for B4, the Kd turned out to be 17 nM, the koff was 0.0467 s⁻¹ and the kon stood at 2.75e+06 M⁻¹ s⁻¹.

With B5, the Kd came to 1.11 nM, the koff is 0.00291 s⁻¹ and the kon was determined as 2.63e+06 M⁻¹ s⁻¹.

With B6, binding was characterised by a dissociation constant (Kd) of 48.6 nM, the koff was found to be 0.00944 s⁻¹ and the kon is 194000 M⁻¹ s⁻¹.

With B7, binding was characterised by a dissociation constant (Kd) of 63.5 nM, the koff worked out at 0.0458 s⁻¹ and the kon was 721000 M⁻¹ s⁻¹.

B8 registered a Kd of 65.6 nM, a koff of 0.131 s⁻¹ and an association rate constant (kon) of 1.99e+06 M⁻¹ s⁻¹.

In turn, B9 gave a Kd of 33.3 nM, a koff of 0.0235 s⁻¹ and a kon of 704000 M⁻¹ s⁻¹.
